According to the Human Domainome abundance scans (Beltran et al. 2025):

B1: Zinc finger homeobox protein 4, residues 2562 to 2617; numbered along this chain, Q86UP3 (parent)
chain: RLRTTITPEQLEILYEKYLLDSNPTRKMLDHIAREVGLKKRVVQVWFQNTRARERK

Variants of: B1
Test: abundance fitness (aPCA) (normalised: wild type 0, dead -1); higher = more abundant; growth selection in yeast, the domain comes from the species named
Conditions: Homo sapiens

Abundance fitness: each site, then its substitutions
T7: V -0.196, W -0.708, Y -0.436
P8: A 0.076, C -0.54, D -0.107, E 0.197, F -0.038, G -0.504, H -0.422, I 0.043, K -0.272, L 0.167, M -0.329, Q -0.232, R -0.254, S -0.413, T -0.452, V 0.168, W -0.177, Y -0.643
E9: A -0.069, C -0.417, D 0.038, F -0.399, G -0.159, H -0.257, L -0.202, M -0.171, N -0.141, P -0.178, Q -0.152, R -0.005, S -0.173, T -0.105, V -0.157, Y -0.297
Q10: C -0.847, D 0.18, E -0.641, F -0.941, G -0.695, H -0.466, I -0.086, K -0.524, M -0.326, N -0.651, P -0.869, S -0.603, T -0.587, V -0.283, W -0.695, Y -0.856
L11: A -0.059, C -0.85, D 0.108, E 0.092, G -0.017, H -0.01, I -0.037, K -0.05, M -0.062, N -0.189, P -1.05, Q 0.017, R -0.043, S -0.082, T 0.215, V 0.123, W -0.203, Y -0.159
E12: A 0.01, C -0.224, D -0.05, F 0.083, G -0.039, H -0.307, I 0.294, K 0.238, L -0.002, M -0.075, N -0.075, P -0.659, Q 0.033, R 0.007, S 0.048, T 0.164, V -0.062, W -0.496, Y -0.435
I13: A 0.003, C -0.389, D -0.535, E -0.06, F -0.084, G -0.235, H -0.588, K 0.173, L -0.097, M -0.088, N -0.161, P -0.68, Q 0.167, R -0.003, S -0.041, T -0.139, V -0.072, W -0.246, Y -0.017
L14: A -0.765, C -1.16, D -0.754, E -0.924, F -0.718, G -0.773, H -0.846, K -1.05, M -0.225, N 0.341, P -0.658, Q -0.959, R -0.849, S -0.998, T -1, V -0.945, W -1.16, Y -0.867
Y15: A -0.105, C -0.063, D -0.02, E 0.301, F -0.193, G 0.009, H 0.085, I -0.224, K 0.1, L 0.054, N 0.075, P -0.781, Q 0.092, R 0.161, T 0.067, V -0.206, W 0.048
K17: A -0.289, E -0.081, G -0.513, H -0.441, L -0.508, M -0.024, N 0.008, P -0.334, Q -0.033, R -0.258, S -0.164, T -0.109, V -0.552, W -0.58, Y 0.767
Y18: A -1.06, C -0.817, D -1.13, E -0.943, F 0.425, H -0.773, I -0.246, K -0.544
